Read-outs that look alike come from different tables or passages of the source.
Tests used:
brain = details: in vivo; cited from earlier work
[1] = tested on: α-iduronidase-deficient mice (Idua−/−; Homozygote); experiment: Brain enzyme activity one hour after intranasal administration of forms of iduronidase; details: 2 mg/kg, FIG. 1
[2] = tested on: mouse model of mucopolysaccharidosis (MPS) type I; experiment: Reduction of brain glycosaminoglycans by intranasal treatment (carbazole assay); type: in vivo; details: intranasal 1 mg/kg every other day for two weeks, MPS I mice, *p<0.05, FIG. 3
Description: A mouse model of mucopolysaccharidosis (MPS) type I, which is null for the lysosomal enzyme, α-L-iduronidase (IDUA), was used to measure the amount of glycosaminoglycans in the brain following intranasal administration of 1 mg/kg IDUA or GNeo-AP-IDUA every other day for two weeks. Quantification of glycoaminoglycan was performed using the carbazole assay. […] Data are represented as mean±SD (n=5 or 6). One-way analysis of variance (ANOVA) with Tukey's post-hoc analysis for comparison was applied for data analysis (*p<0.05).

[3] = tested on: α-iduronidase-deficient mice (Idua−/−; Homozygote); details: mouse, in vivo, 2 mg/kg
[4] = tested on: α-iduronidase-deficient mice (Idua−/−; Homozygote); details: mouse, in vivo
Description: One hour following administration the mice were sacrificed and their brains were removed and dissected to isolate tissue from the olfactory bulb, the cerebral cortex, and “other parts of the brain.” The total amount of tissue protein recovered from these various portions was ˜1 mg, ˜25 mg, and ˜50 mg, respectively. The various tissues were then assayed for IDUA activity, which was expressed relative to the wet weight of each part of brain.

[5] = tested on: sulfamidase deficient mice (Sgsh−/−); experiment: Brain enzyme activity one hour after intranasal administration of sulfamidase forms; details: 2 mg/kg, FIG. 4
[6] = tested on: sulfamidase deficient mice (Sgsh−/−); details: mouse, in vivo, 2 mg/kg

B1: IDUA: recombinant enzyme iduronidase (Aldurazyme), not conjugated to guanidinoneomycin (protein, UniProt P35475 28-653, looked up)
Alpha-L-iduronidase: APHLVHVDAARALWPLRRFWRSTGFCPPLPHSQADQYVLSWDQQLNLAYVGAVPHRGIKQVRTHWLLELVTTRGSTGRGLSYNFTHLDGYLDLLRENQLLPGFELMGSASGHFTDFEDKQQVFEWKDLVSSLARRYIGRYGLAHVSKWNFETWNEPDHHDFDNVSMTMQGFLNYYDACSEGLRAASPALRLGGPGDSFHTPPRSPLSWGLLRHCHDGTNFFTGEAGVRLDYISLHRKGARSSISILEQEKVVAQQIRQLFPKFADTPIYNDEADPLVGWSLPQPWRADVTYAAMVVKVIAQHQNLLLANTTSAFPYALLSNDNAFLSYHPHPFAQRTLTARFQVNNTRPPHVQLLRKPVLTAMGLLALLDEEQLWAEVSQAGTVLDSNHTVGVLASAHRPQGPADAWRAAVLIYASDDTRAHPNRSVAVTLRLRGVPPGPGLVYVTRYLDNGLCSPDGEWRRLGRPVFPTAEQFRRMRAAEDPVAAAPRPLPAGGRLTLRPALRLPSLLLVHVCARPEKPPGQVTRLRALPLTQGQLVLVWSDEHVGSKCLWTYEIQFSQDGKAYTPVSRKPSTFNLFVFSPDTGAVSGSYRVRALDYWARPGPFSDPVPYLEVPVPRGPPSPGNP
- levels of enzyme in the brain after intranasal delivery (brain): extremely low
- enzyme activity in brain extracts (uptake into the brain) [1]: not taken up efficiently

B2: GNeo-AP-IDUA: iduronidase (Aldurazyme) treated with alkaline phosphatase to remove mannose-6-phosphate groups, then conjugated to guanidinoneomycin via GNeo-NHS (conjugate, UniProt P35475 28-653, looked up)
Alpha-L-iduronidase: APHLVHVDAARALWPLRRFWRSTGFCPPLPHSQADQYVLSWDQQLNLAYVGAVPHRGIKQVRTHWLLELVTTRGSTGRGLSYNFTHLDGYLDLLRENQLLPGFELMGSASGHFTDFEDKQQVFEWKDLVSSLARRYIGRYGLAHVSKWNFETWNEPDHHDFDNVSMTMQGFLNYYDACSEGLRAASPALRLGGPGDSFHTPPRSPLSWGLLRHCHDGTNFFTGEAGVRLDYISLHRKGARSSISILEQEKVVAQQIRQLFPKFADTPIYNDEADPLVGWSLPQPWRADVTYAAMVVKVIAQHQNLLLANTTSAFPYALLSNDNAFLSYHPHPFAQRTLTARFQVNNTRPPHVQLLRKPVLTAMGLLALLDEEQLWAEVSQAGTVLDSNHTVGVLASAHRPQGPADAWRAAVLIYASDDTRAHPNRSVAVTLRLRGVPPGPGLVYVTRYLDNGLCSPDGEWRRLGRPVFPTAEQFRRMRAAEDPVAAAPRPLPAGGRLTLRPALRLPSLLLVHVCARPEKPPGQVTRLRALPLTQGQLVLVWSDEHVGSKCLWTYEIQFSQDGKAYTPVSRKPSTFNLFVFSPDTGAVSGSYRVRALDYWARPGPFSDPVPYLEVPVPRGPPSPGNP
modifications: guanidinoneomycin conjugate; alkaline phosphatase modified
- total GAG level in the mouse brain compared with untreated mouse brains [2]: significantly decreased
- enzyme activity in brain extracts (uptake into the brain) [3]: significantly more enzymatic activity
- dose at which uptake into the olfactory bulb (OB) and cerebral cortex (CC) saturated [4]: ~1 mg/kg
- enzyme concentration in the OB versus the CC, based on enzyme specific activity (nmols/hr/mg of tissue protein) [4]: much greater than in the CC
- share of the administered dose in Other parts of the Brain [4]: ~64%
- share of the administered dose in the CC [4]: ~23%
- share of the administered dose in the OB [4]: ~13%

B3: AP-IDUA: iduronidase modified with alkaline phosphatase only, not conjugated to GNeo (protein, UniProt P35475 28-653, looked up)
Alpha-L-iduronidase: APHLVHVDAARALWPLRRFWRSTGFCPPLPHSQADQYVLSWDQQLNLAYVGAVPHRGIKQVRTHWLLELVTTRGSTGRGLSYNFTHLDGYLDLLRENQLLPGFELMGSASGHFTDFEDKQQVFEWKDLVSSLARRYIGRYGLAHVSKWNFETWNEPDHHDFDNVSMTMQGFLNYYDACSEGLRAASPALRLGGPGDSFHTPPRSPLSWGLLRHCHDGTNFFTGEAGVRLDYISLHRKGARSSISILEQEKVVAQQIRQLFPKFADTPIYNDEADPLVGWSLPQPWRADVTYAAMVVKVIAQHQNLLLANTTSAFPYALLSNDNAFLSYHPHPFAQRTLTARFQVNNTRPPHVQLLRKPVLTAMGLLALLDEEQLWAEVSQAGTVLDSNHTVGVLASAHRPQGPADAWRAAVLIYASDDTRAHPNRSVAVTLRLRGVPPGPGLVYVTRYLDNGLCSPDGEWRRLGRPVFPTAEQFRRMRAAEDPVAAAPRPLPAGGRLTLRPALRLPSLLLVHVCARPEKPPGQVTRLRALPLTQGQLVLVWSDEHVGSKCLWTYEIQFSQDGKAYTPVSRKPSTFNLFVFSPDTGAVSGSYRVRALDYWARPGPFSDPVPYLEVPVPRGPPSPGNP
modifications: alkaline phosphatase modified
- enzyme activity in brain extracts (uptake into the brain) [1]: does not appear to facilitate efficient transport into the brain

B4: GNeo-SGSH: Sulfamidase (SGSH) conjugated to guanidinoneomycin (conjugate, UniProt P51688 21-502, looked up)
N-sulphoglucosamine …: RPRNALLLLADDGGFESGAYNNSAIATPHLDALARRSLLFRNAFTSVSSCSPSRASLLTGLPQHQNGMYGLHQDVHHFNSFDKVRSLPLLLSQAGVRTGIIGKKHVGPETVYPFDFAYTEENGSVLQVGRNITRIKLLVRKFLQTQDDRPFFLYVAFHDPHRCGHSQPQYGTFCEKFGNGESGMGRIPDWTPQAYDPLDVLVPYFVPNTPAARADLAAQYTTVGRMDQGVGLVLQELRDAGVLNDTLVIFTSDNGIPFPSGRTNLYWPGTAEPLLVSSPEHPKRWGQVSEAYVSLLDLTPTILDWFSIPYPSYAIFGSKTIHLTGRSLLPALEAEPLWATVFGSQSHHEVTMSYPMRSVQHRHFRLVHNLNFKMPFPIDQDFYVSPTFQDLLNRTTAGQPTGWYKDLRHYYYRARWELYDRSRDPHETQNLATDPRFAQLLEMLRDQLAKWQWETHDPWVCAPDGVLEEKLSPQCQPLHNEL
modifications: guanidinoneomycin conjugate
- enzyme activity in brain extracts (uptake into the brain) ([5]; one hour after administration): rapid uptake into the brain
- level of activity in the olfactory bulb of brain versus wildtype animals ([5]; one hour): exceeded that found in wildtype animals

B5: SGSH: Sulfamidase with mannose-6-phosphate terminated glycans, not conjugated to guanidinoneomycin (protein, UniProt P51688 21-502, looked up)
N-sulphoglucosamine …: RPRNALLLLADDGGFESGAYNNSAIATPHLDALARRSLLFRNAFTSVSSCSPSRASLLTGLPQHQNGMYGLHQDVHHFNSFDKVRSLPLLLSQAGVRTGIIGKKHVGPETVYPFDFAYTEENGSVLQVGRNITRIKLLVRKFLQTQDDRPFFLYVAFHDPHRCGHSQPQYGTFCEKFGNGESGMGRIPDWTPQAYDPLDVLVPYFVPNTPAARADLAAQYTTVGRMDQGVGLVLQELRDAGVLNDTLVIFTSDNGIPFPSGRTNLYWPGTAEPLLVSSPEHPKRWGQVSEAYVSLLDLTPTILDWFSIPYPSYAIFGSKTIHLTGRSLLPALEAEPLWATVFGSQSHHEVTMSYPMRSVQHRHFRLVHNLNFKMPFPIDQDFYVSPTFQDLLNRTTAGQPTGWYKDLRHYYYRARWELYDRSRDPHETQNLATDPRFAQLLEMLRDQLAKWQWETHDPWVCAPDGVLEEKLSPQCQPLHNEL
- enzyme activity in brain extracts (uptake into the brain) [6]: not taken up efficiently

Reference: patent publication US9757468B2, “Intranasal administration of guanidinylated aminoglycosides” (The Regents of the University of California, priority 2013, dated 2017)
